Experimental data: paper PMC3359404

Legend:
Test in all cases: purified protein
Conditions in all cases: 10 mM pyruvate, 0.3 mM NADPH, 150 mM PIPES pH 6.6, room temperature
[1] = system: N[C@@H](CS)C(=O)O
[2] = system: CSCC[C@H](N)C(=O)O
[3] = system: N[C@@H](CCO)C(=O)O
[4] = system: NCC(=O)O
[5] = system: N[C@@H](Cc1c[nH]cn1)C(=O)O
[6] = system: N=C(N)NOCC[C@H](N)C(=O)O
[7] = system: N[C@@H](CCS)C(=O)O
[8] = system: C[S+](C)CC[C@H](N)C(=O)O
[9] = system: NC(=O)CC[C@H](N)C(=O)O

Question: Which results are given for “Ocs (His6-Ocs), octopine synthase (Agrobacterium tumefaciens (strain 15955))”?
Answer: Km [1]: 11 ± 3 mM; kcat [1]: 11.2 s⁻¹; kcat/Km [1]: 1020 M⁻¹ s⁻¹; Km [2]: 27 ± 6 mM; kcat [2]: 78.3 s⁻¹; kcat/Km [2]: 2830 M⁻¹ s⁻¹; Km [3]: 15 ± 3 mM; kcat [3]: 30 s⁻¹; kcat/Km [3]: 2000 M⁻¹ s⁻¹; Km [4]: 30 ± 6 mM; kcat/Km [4]: 717 M⁻¹ s⁻¹; Km [5]: 2.0 ± 0.21 mM; kcat [5]: 20 s⁻¹; kcat/Km [5]: 10000 M⁻¹ s⁻¹; Km [6]: 2.8 ± 0.5 mM; kcat [6]: 16.7 s⁻¹; kcat/Km [6]: 6000 M⁻¹ s⁻¹; Km [7]: 8.9 ± 1.1 mM; kcat [7]: 26.7 s⁻¹; kcat/Km [7]: 3000 M⁻¹ s⁻¹; Km [8]: 0.31 ± 0.04 mM; kcat [8]: 0.817 s⁻¹; kcat/Km [8]: 2670 M⁻¹ s⁻¹; Km [9]: 5.6 ± 0.6 mM; kcat [9]: 13 s⁻¹; kcat/Km [9]: 2330 M⁻¹ s⁻¹
